{"source": "the DeepSol protein solubility set"}
{"assay": "soluble on expression in E. coli; label from the status in PepcDB or PDB records"}
{"sequence": "MSLEKVIPVKKNNDYEIYIDDFGNMGEGIGKIDNFTVFVKDAVKGEKVRAKIIKVNKSFAIGKLIDIIEKSQDRTEPVCSIYKKCGGCQLQHLKYTEQLEFKKNKVVECLKRIGKLDLSSVRINETIGMEDPYFYRNKVQLPVGETAGEAKIGFYRERSHEIIEVDKCFIQDDSANEIILLIKRWIKEFNIEGYNEYSGKGTLRHIMIRKAFKTGQIMLVLVTNTENVPHKKELIHMITTEIQGIKGIIQNINNKKTNVILGQREITLWGESTIEDYIGEFKFNISSKSFFQVNPIQTEKLYSAALKYAGLTGKEVVFDAYCGTGTISLFLSQNAKKVYGVEIIPEAIENAKINAKQNGIENTEFIVGKSEEEIPKLIEKGIAPEVVVVDPPRKGCEKSLLHSIAEASPKTIVYVSCDPATLSRDLGILSELGYEVNEVQPVDMFPMTGHVETIVLIKRVDKEGHHHHHH", "soluble on expression in E. coli": "soluble"}
{"sequence": "MSLELNGRALSSTIAPRTQAQRILQTQKISSTDLVVVIGLGNPHLIFEVHKSLEPGQVLLLVDEYPELIFPLWDGILEPVMDVPGRHLFLGHSALNLLWNYLESLPVERVSGIRVFRNTASTALNETYYSDLEIKIRKILSSKMSDLLTKFEFERIWVRNTFVNTANFPDSKNPRTRIESLKGKFLDTPAMLVSAGPSLRSQCEWISKVRDKVFLFSCDTSFKALLKFGIVPDGVITLDAQTHSFFHFMGAESSNVPLFADLVSSPSILRSQKFTKIVHSLSAKYVVDASGEFKREVTAGSKTAEKLLGPIGDIQSGGSVATTAFDLLRNLGCKPIFLVGQDLAYSGREEGHHHHHH", "soluble on expression in E. coli": "not soluble"}
{"sequence": "MSLELPFSNQSIIPAAHNQKDMEKILELDLTYMVMLETHVAQLKALVKYAQAGGKKVLLHADLVNGLKNDDYAIDFLCTEICPDGIISTRGNAIMKAKQHKMLAIQRLFMIDSSAYNKGVALIQKVQPDCIELLPGIIPEQVQKMTQKLHIPVIAGGLIETSEQVNQVIASGAIAVTTSNKHLWEGHHHHHH", "soluble on expression in E. coli": "soluble"}
{"sequence": "MSLELVSFVKSHIDQAVYFSTITSNPIEFNLPESLSLDTTDIENDIKTSCDEIFYSTGSYIPPMLNTLEQHLNLRIEYFNNLIEFTKINFNYKISPTVKLYLIEKISILKCCLALFKYISDKAILSNIWRDLVLNSFNDSSLEEFVLGKLDEFPRLFTIFLNDLSAKIVGFNDVEEKVKIVDLLITCVYDAVLENCEKSIRYDALQLDPLELDNKPMWFTNLTNIKAMNNIFFSFIFPDNDLSVENKQRLLTVVKLLYYVINQNMIWHKSMKQIETEEYKEVEALYNDNHANWIHVLCNIGVHEEALQICEFYHDLGGLVEILEKLDFEISRELYDQYFKMFGYEFATILFEYYINAKDLKALFFKFPNHHDLLNKFLLSSPPKYYKYAWIQEIIDNDYRKASDILTTLSVGEAGDGCEISERQLHLNIAKLSGLVDENFDANQMIEIQRDIDTIDHQTRIKKLLEEDPTGISMNQAFANNEFGEKFQETKYCIQNDKSINIKYIIDMLSMMDSVENLYEALKLTCIYRHSLGYEVSKYFQQSIWRRCIIEESKDGVIQLEGENSKIYQLLVKYFEGKLYEYDCKLPFVSFLMDRIGISMNFLSIIYGNDNNVLVSISDSIEREYHDLIRIGDTLESQLSTIIGSANEGHHHHHH", "soluble on expression in E. coli": "not soluble"}
{"sequence": "MSLENHWYEVKQTQSEGFFKDLNGSRTKESISYFPKIYYRMKDGLLSIRVQISLGKYQDQLLKLEKKLESGLYCELVEKELKDSYVDYTLLYDMIANRIGIEEAVVENGALRLMKNQVWAYDFLPHMLIAGGTGGGKTYFLLTIIEALLKSDAELFILDPKNADLADLGTIMTHVYSQKEQISACVEDFYERMMVRSRLMKEMPNYKTGENYAYLGLSPNFLVFDEYVAYMEMLTTKESAVILNKLKQIVMLGRQSGFFLILACQRPDAKYLGDGIRDQFNFRVALGRMSELGYSMMFGEVDKIFFMKQIKGRGYVDTGGGVVSEFYTPLVPKGYDFLESTKTIVQNNINEGHHHHHH", "soluble on expression in E. coli": "soluble"}
{"sequence": "MSLENPTSIQIWHYYNGQQKMAFDKLVKEFNDTVGAEKGIIVEAFSQGNVVDLSEKVLDSANKKVGSEDVPNIFAAYSDTAYEMDKLGLLVDMDKYISKEELNEYIDEYVEEGRINSKDEFKLFPIAKSTEILMLNKTDWDKFAKATNSNINDIKTIEGLVETSKKYYEWTDSLTKEPNDGKAFFGRDALANYIIIGSKQLGVEIFSVKDGKVTLNIDEKVMKKLWDNFYVPYINGYFASYGKFRSDDAKTGDILALVGSSSGAAYFPDRVMLNDNESYNIETSVFQAPRFKGEGKYAVQQGAGMAVTKSTKEEEYASVEFLKWFTDKEPNIKFSIASGYLPVKKKTNDLDVIKEVMKKDNLSLSDKVEGSIASSIEQINSCNLYTNKAFDGGTKARQILEYSMLDKAKEDSNKINELVKSGTSKKDAVAQFNNDKNFKTWFEIFKAELENAIKEGHHHHHH", "soluble on expression in E. coli": "soluble"}
{"sequence": "MSLENTTQIPESELHNLGLTDEEIQEFNQYLIDESLFQETVETSPIVVSDNEDAAQDPGFGLFTTNPVKHTDEHIGALYFSDLPGISNLTCTANYIGGKFWTTAHHCVEGRSRFVGFIEQSDGQYAGIEHVYTKSSDYDIALIKVGSGIDAEQFSLTRSRPAVGKMLEVVGFAVVNPFSSRATMEVTNSNTVANYPMSNLYYKDVFSAKPAGSFPYVISGGDSGAAVWSGETMYGIASGSNGSTKNLAANVGPHVSWIEQTMQNNSNSSPYEILQAFRGGLATSYPKYNQIRDLVDSSEGHHHHHH", "soluble on expression in E. coli": "soluble"}
{"sequence": "MSLEQVEILRKFIQRVQAMKSPDHNGEDNFARDFMRLRRLSTKYRTEKIYPTATGEKEENVKKNRYKDILPFDHSRVKLTLKTPSQDSDYINANFIKGVYGPKAYVATQGPLANTVIDFWRMIWEYNVVIIVMACREFEMGRKKCERYWPLYGEDPITFAPFKISCEDEQARTDYFIRTLLLEFQNESRRLYQFHYVNWPDHDVPSSFDSILDMISLMRKYQEHEDVPICIHCSAGCGRTGAICAIDYTWNLLKAGKIPEEFNVFNLIQEMRTQRHSAVQTKEQYELVHRAIAQLFEKQLQLYEIHGAQKIADGVNEINTENEGHHHHHH", "soluble on expression in E. coli": "soluble"}
{"sequence": "MSLERPLCISYIRFSKATQAEGSSLERQLQLSRTYAEEHGLVLDDKHSYQDLGKSAFTSEHVKEGEFGVFLEFVKQGRVPKGSVLLVESLDRLSRESVLTAFKQFQEILDAGIKIVTLSDKMEYTKEGFEANIGNIFISLGIMARANEESLRKSERICAAWRLKRKNLHNIKLTANCPGWLELTPDKKDFILKEDRVEIVKQIFELSLSGLGVKAISTILNKQKIEPFRSKIGWYQTTVRKILSNSAVIGEFQPHVFGSKHSKPVPDGELIKDYFPPIIDTDTFYAVQAKLKNGAHRPGRTAKVENLFSGYTRCGYCGSRMDVVARHNVGGEVRYLVCDSARRGVKCSYISMKCNEIEKAFFEYCREIDIRYVLRAEQQADQNRLNELRKSLTARNGKLMKVQKQIDMLNVFLDDITERAELEHYHEQIKKKLEEKTNLSEEIEKLSKGICIAEYDNNNIDVRVQNLLTLDKAQNKSVKEDDKIMFRIRLRDELRQIISQILVYPRGSVFSDEQIEQKERDYEIKIKSASDSEKHILKHEKTIDLDGMRQSQQNTKDDRFFVVRFKNGNYRTIKYDKKQQAYRVTSELINDKLNWWMGNKEMAPIFREEEELHPFETEFELDSNEGHHHHHH", "soluble on expression in E. coli": "not soluble"}
{"sequence": "MSLESIKVGMIGYKFMGKAHSHAYRDLPMFFPDHLRPEMKVICGRNPEGVAQAASQYGWEEYTTNWKDLIRRDDIDLIDINAPSDVHKEITLAAAQAGKHIFCEKPLALTLQDSRHMLEAVEAAGVKHMVGFNYRFTPAVLLAKKLIAEGRLGDIYHFRAWFLQDWIVAPDFPLVWRLQKDIAGSGAHGDLGAHLIDMAHFLIGDITEVIGMNETFIKERPLPTEMTGLSGRGSNDHTVPKGPVTVDDATLFMARFANGALGSFEATRFATGHRSTNSFEINGSKGSVIFDFERLNELQVYFTDDQDDVQGFRRVLATDGAHAYSDRWWPAGHTIGYEHTFIHEIAELMESLQEGRQPVPNFKDGVKCQQVLEAVDLSIAKREWIQVSEGHHHHHH", "soluble on expression in E. coli": "soluble"}
{"sequence": "MSLEYAKSLFERHLDIASKFRPKNPYLKTAYMNVLLSLTQTICQSPQELSNDDLSDAGAALAYLREAGFELDWLEKKLNEVKEKKKKEEACLAEIQDMDEHVKPLKKKYLDLEAQIDKKKAELLAARAPLSLNDDNVVSMFCDSAETQQWFDKNAPDWGFTEMISLTELHAEEGLLRNGELTVVAKVEVLEVVGKLDVSEESSPVIETIDVNGFQVLPSEGHHHHHH", "soluble on expression in E. coli": "soluble"}
{"sequence": "MSLFCLPLEMRNHWHFFSLFTNLPRKSKWHRASEFFFPLLMSEIEDFR", "soluble on expression in E. coli": "soluble"}
{"sequence": "MSLFPGDIEELARRIITDFTPLGLMVSTAESCTGGLIAGALTEIAGSSAVVDRGFVTYTNDAKRDMLGVGTETLTTFGAVSRQTALQMAHGALYRSRANFAVAVTGIAGPGGGSAEKPVGLVHLATKARNGNVLHHEMRYGDIGRTEIRLATVRTALEMLIALNQAGSV", "soluble on expression in E. coli": "soluble"}
{"sequence": "MSLGADRSAPMTARIDQLLLERLKSAGVEPAPAADDGEFLRRAYLDLSGTIPPVAITRDYLADSSPAKRRQLIERLLASPAFASHLASTWREIILKPTDDFQQLQNQFALQAWLREQFSENARYDRIVEQFITASSEQDGPVYFYDALDLKPEQLAAETSRIFLGLHIQCAECHDHPFDDWKQRDFWGYAAFFARVAKRDSAMGRISLVDQEMGEVKIPESEETVAPLYPGGSAPSDRFGGTRRQKLAVWMVARDNPYTARRAVNWAWAHLFGRGLVEPVDDLSPLNAPSHPALMEELTQYFIDSGYDLRQLLRTLAMTDAYARSSQNVDGQRPELFANMAIKSLSPEQLYDAILRLGLIRETVGDLSSQAPQPFDRSQQRLQFVARMRTVSLDRTDFETGAPQALALMNGPPVSLATAPETSGFLKSLEAPFFSDEQRVELIALAAYSRQPTAEERQRFSEYLATASPNEKKQALGDLLWAVAASAEFMLNEGHHHHHH", "soluble on expression in E. coli": "not soluble"}
{"sequence": "MSLGAKPFGEKKFIEIKGRRMAYIDEGTGDPILFQHGNPTSSYLWRNIMPHCAGLGRLIACDLIGMGDSDKLDPSGPERYAYAEHRDYLDALWEALDLGDRVVLVVHDWGSALGFDWARRHRERVQGIAYMEAIAMPIEWADFPEQDRDLFQAFRSQAGEELVLQDNVFVEQVLPGLILRPLSEAEMAAYREPFLAAGEARRPTLSWPRQIPIAGTPADVVAIARDYAGWLSESPIPKLFINAEPGALTTGRMRDFCRTWPNQTEITVAGAHFIQEDSPDEIGAAIAAFVRRLRPAHHHHHH", "soluble on expression in E. coli": "soluble"}
{"sequence": "MSLGANIVSVEFIPVNVAATNWSENTVIVKVTDENGVYGLGEADGPPECMKAFSEIENEHKWLNNIKEAVIGRDPLEFRANYNRMYDTTKWIGMRGLGLFAISGIDMALYDLAGKQLGVPAYKLMGGAQKAQLTPYFTLYPSVAADATLSEIVEAYKPLIAKAKERGAKAVKVCIIPNDKVSDKEIVAYLRELREVIGWDMDMMVDCLYRWTDWQKARWTFRQLEDIDLYFIEACLQHDDLIGHQKLAAAINTRLCGAEMSTTRFEAQEWLEKTGISVVQSDYNRCGGVTELLRIMDICEHHNAQLMPHNWKTGITAAAARHFGIVCHISEYVEYLHPDFWNGTLTQQLTLNEPKIIDGAIEVSDKPGLGIELNIEFVEQVTGHKFEGHHHHHH", "soluble on expression in E. coli": "soluble"}
{"sequence": "MSLGDLPLGWHKLHLKSNERSAECGLIITPARLSTADKYLDSPRSGVMAQIYSVRSTLSWGMGDFNDLGNLASVVAQDGADFLLINPMHAAEPLPPTEDSPYLPTTRRFINPIYIRVEDIPEFNQLEIDLRDDIAEMAAEFRERNLTSDIIERNDVYAAKLQVLRAIFEMPRSSEREANFVSFVQREGQGLIDFATWCADRETAQSESVHGTEPDRDELTMFYMWLQWLCDEQLAAAQKRAVDAGMSIGIMADLAVGVHPGGADAQNLSHVLAPDASVGAPPDGYNQQGQDWSQPPWHPVRLAEEGYIPWRNLLRTVLRHSGGIRVDHVLGLFRLFVMPRMQSPATGTYIRFDHNALVGILALEAELAGAVVIGEDLGTFEPWVQDALAQRGIMGTSILWFEHSPSQPGPRRQEEYRPLALTTVTTHDLPPTAGYLEGEHIALRERLGVLNTDPAAELAEDLQWQAEILDVAASANALPAREYVGLERDQRGELAELLEGLHTFVAKTPSALTCVCLVDMVGEKRAQNQPGTTRDMYPNWCIPLCDSEGNSVLIESLRENELYHRVAKASKRDEGHHHHHH", "soluble on expression in E. coli": "not soluble"}
